Results on twelve molecules are retold here after patent US10941182 (Amgen, dated 2021).

The target of one assay is T1, human APJ receptor (human, UniProt P35414 1-380).
T1 sequence (looked up): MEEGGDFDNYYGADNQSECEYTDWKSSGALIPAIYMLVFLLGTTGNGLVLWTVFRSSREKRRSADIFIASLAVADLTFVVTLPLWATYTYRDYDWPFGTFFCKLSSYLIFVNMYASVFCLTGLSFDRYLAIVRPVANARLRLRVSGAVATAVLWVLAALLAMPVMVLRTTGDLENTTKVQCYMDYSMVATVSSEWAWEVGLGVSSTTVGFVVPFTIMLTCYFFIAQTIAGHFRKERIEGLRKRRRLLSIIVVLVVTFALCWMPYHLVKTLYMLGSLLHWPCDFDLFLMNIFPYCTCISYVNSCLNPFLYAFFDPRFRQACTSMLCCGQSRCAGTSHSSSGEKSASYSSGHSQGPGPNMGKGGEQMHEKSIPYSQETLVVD
The assay is described as follows: cell-based or functional assay.

For the next assay, the target named is T2, rat APJ receptor (rat, UniProt Q9JHG3 1-377).
T2 sequence (looked up): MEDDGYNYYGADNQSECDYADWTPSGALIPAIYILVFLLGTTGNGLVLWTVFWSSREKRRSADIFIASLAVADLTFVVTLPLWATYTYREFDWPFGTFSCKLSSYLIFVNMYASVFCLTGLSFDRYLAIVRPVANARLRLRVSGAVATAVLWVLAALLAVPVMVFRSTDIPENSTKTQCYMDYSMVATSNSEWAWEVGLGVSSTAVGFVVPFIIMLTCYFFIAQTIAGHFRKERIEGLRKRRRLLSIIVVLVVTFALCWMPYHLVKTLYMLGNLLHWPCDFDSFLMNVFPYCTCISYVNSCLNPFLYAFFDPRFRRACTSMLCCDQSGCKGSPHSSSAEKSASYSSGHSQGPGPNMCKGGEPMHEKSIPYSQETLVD
The assay is described as follows: cell-based or functional assay.

Starred links: 1 amine or outer side, 2 acyl side, 3 side chain; linkers in the order of their positions; H or OH if unused. Non-standard residues stand in square brackets, D forms with d. *: point of attachment. Oic = O=C(O)[C@@H]1C[C@@H]2CCCC[C@@H]2N1; Phe(4-Cl) = N[C@@H](Cc1ccc(Cl)cc1)C(=O)O; γGlu = O=C(O)[C@H](CCC(=O)[*:2])N[*:1]; 2Nal = N[C@@H](Cc1ccc2ccccc2c1)C(=O)O; NMehArg = CN[C@@H](CCCCNC(=N)N)C(=O)O; NMeR = CN[C@@H](CCCNC(=N)N)C(=O)O; Tridecanoyl = CCCCCCCCCCCCC(=O)*; hArg = N=C(N)NCCCC[C@H](N)C(=O)O; Cha = N[C@@H](CC1CCCCC1)C(=O)O; Nle = CCCC[C@H](N)C(=O)O; AEEA = NCCOCCOCC(=O)O; Aib = CC(C)(N)C(=O)O

B1: Apelin polypeptide SEQ ID NO: 430 (peptide)
peptide: Tridecanoyl-[γGlu][AEEA][AEEA]Q[dR]P[dR][Cha]SHKG[Oic][Nle]P[Phe(4-Cl)]-OH
SMILES: CCCCCCCCCCCCC(=O)N[C@@H](CCC(=O)NCCOCCOCC(=O)NCCOCCOCC(=O)N[C@@H](CCC(N)=O)C(=O)N[C@H](CCCNC(=N)N)C(=O)N1CCC[C@H]1C(=O)N[C@H](CCCNC(=N)N)C(=O)N[C@@H](CC1CCCCC1)C(=O)N[C@@H](CO)C(=O)N[C@@H](Cc1c[nH]cn1)C(=O)N[C@@H](CCCCN)C(=O)NCC(=O)N1[C@H](C(=O)N[C@@H](CCCC)C(=O)N2CCC[C@H]2C(=O)N[C@@H](Cc2ccc(Cl)cc2)C(=O)O)C[C@@H]2CCCC[C@@H]21)C(=O)O
With B1, in the assay with human APJ receptor, the “EC50 Human APJ Receptor (GTPγS assay)” value stood at 1220 pM. The “EC50 Rat APJ Receptor (GTPγS assay)” value in the assay with rat APJ receptor came to 2840 pM.

B2: Apelin polypeptide SEQ ID NO: 479 (peptide)
peptide: Tridecanoyl-[γGlu][AEEA][AEEA][dR]Q[hArg]P[NMeR][Cha]SHKG[Oic][Nle]P[Phe(4-Cl)]-OH
SMILES: CCCCCCCCCCCCC(=O)N[C@@H](CCC(=O)NCCOCCOCC(=O)NCCOCCOCC(=O)N[C@H](CCCNC(=N)N)C(=O)N[C@@H](CCC(N)=O)C(=O)N[C@@H](CCCCNC(=N)N)C(=O)N1CCC[C@H]1C(=O)N(C)[C@@H](CCCNC(=N)N)C(=O)N[C@@H](CC1CCCCC1)C(=O)N[C@@H](CO)C(=O)N[C@@H](Cc1c[nH]cn1)C(=O)N[C@@H](CCCCN)C(=O)NCC(=O)N1[C@H](C(=O)N[C@@H](CCCC)C(=O)N2CCC[C@H]2C(=O)N[C@@H](Cc2ccc(Cl)cc2)C(=O)O)C[C@@H]2CCCC[C@@H]21)C(=O)O
B2: the “EC50 Human APJ Receptor (GTPγS assay)” value with human APJ receptor worked out at 408 pM. Further, the “EC50 Rat APJ Receptor (GTPγS assay)” value with rat APJ receptor is 806 pM.

B3: Apelin polypeptide SEQ ID NO: 435 (peptide)
peptide: Tridecanoyl-[γGlu][AEEA][AEEA]Q[dR]P[NMehArg][Cha]SHKGP[Nle]P[Phe(4-Cl)]-OH
SMILES: CCCCCCCCCCCCC(=O)N[C@@H](CCC(=O)NCCOCCOCC(=O)NCCOCCOCC(=O)N[C@@H](CCC(N)=O)C(=O)N[C@H](CCCNC(=N)N)C(=O)N1CCC[C@H]1C(=O)N(C)[C@@H](CCCCNC(=N)N)C(=O)N[C@@H](CC1CCCCC1)C(=O)N[C@@H](CO)C(=O)N[C@@H](Cc1c[nH]cn1)C(=O)N[C@@H](CCCCN)C(=O)NCC(=O)N1CCC[C@H]1C(=O)N[C@@H](CCCC)C(=O)N1CCC[C@H]1C(=O)N[C@@H](Cc1ccc(Cl)cc1)C(=O)O)C(=O)O
With B3, the “EC50 Human APJ Receptor (GTPγS assay)” value with human APJ receptor worked out at 460 pM. For the same molecule, in the assay with rat APJ receptor, the “EC50 Rat APJ Receptor (GTPγS assay)” value was 1150 pM.

B4: Apelin polypeptide SEQ ID NO: 429 (peptide)
peptide: XXXQRPRLSHKGPXXF
modifications: {TDA}[AC4Abu][Aeea][Aeea]QRP[NMeArg]LSHKGP[Nle][Pip][4-Cl-F]{COOH}
For the molecule B4, the “EC50 Human APJ Receptor (GTPγS assay)” value with human APJ receptor came to 66.3 pM. In the assay with rat APJ receptor, the “EC50 Rat APJ Receptor (GTPγS assay)” value amounted to 93.5 pM.

B5: Apelin polypeptide SEQ ID NO: 470 (peptide)
peptide: Tridecanoyl-[γGlu][AEEA][AEEA]QRP[NMeR]LSHKGP[Nle]P[2Nal]-OH
SMILES: CCCCCCCCCCCCC(=O)N[C@@H](CCC(=O)NCCOCCOCC(=O)NCCOCCOCC(=O)N[C@@H](CCC(N)=O)C(=O)N[C@@H](CCCNC(=N)N)C(=O)N1CCC[C@H]1C(=O)N(C)[C@@H](CCCNC(=N)N)C(=O)N[C@@H](CC(C)C)C(=O)N[C@@H](CO)C(=O)N[C@@H](Cc1c[nH]cn1)C(=O)N[C@@H](CCCCN)C(=O)NCC(=O)N1CCC[C@H]1C(=O)N[C@@H](CCCC)C(=O)N1CCC[C@H]1C(=O)N[C@@H](Cc1ccc2ccccc2c1)C(=O)O)C(=O)O
Take B5: the “EC50 Human APJ Receptor (GTPγS assay)” value in the assay with human APJ receptor was 38 pM. Further, in the assay with rat APJ receptor, the “EC50 Rat APJ Receptor (GTPγS assay)” value was 150 pM.

B6: Apelin polypeptide SEQ ID NO: 526 (peptide)
peptide: Tridecanoyl-[γGlu][AEEA][AEEA][dQ]RPE[Cha]SHKG[Oic][Nle][Aib][Phe(4-Cl)]-OH
SMILES: CCCCCCCCCCCCC(=O)N[C@@H](CCC(=O)NCCOCCOCC(=O)NCCOCCOCC(=O)N[C@H](CCC(N)=O)C(=O)N[C@@H](CCCNC(=N)N)C(=O)N1CCC[C@H]1C(=O)N[C@@H](CCC(=O)O)C(=O)N[C@@H](CC1CCCCC1)C(=O)N[C@@H](CO)C(=O)N[C@@H](Cc1c[nH]cn1)C(=O)N[C@@H](CCCCN)C(=O)NCC(=O)N1[C@H](C(=O)N[C@@H](CCCC)C(=O)NC(C)(C)C(=O)N[C@@H](Cc2ccc(Cl)cc2)C(=O)O)C[C@@H]2CCCC[C@@H]21)C(=O)O
For B6, in the assay with human APJ receptor, the “EC50 Human APJ Receptor (GTPγS assay)” value amounted to 2020 pM. In the assay with rat APJ receptor, the “EC50 Rat APJ Receptor (GTPγS assay)” value was 7200 pM.

B7: Apelin polypeptide SEQ ID NO: 384 (peptide)
peptide: XXXQRPRLSHKGPXPF
modifications: {TDA}[AC4Abu][Aeea][Aeea]QrP[NMehArg][BLeu]SHKGP[Nle]P[4-Cl-F]{COOH}
As to B7, the “EC50 Human APJ Receptor (GTPγS assay)” value with human APJ receptor was 956 pM. The “EC50 Rat APJ Receptor (GTPγS assay)” value in the assay with rat APJ receptor was found to be 4350 pM.

B8: Apelin polypeptide SEQ ID NO: 427 (peptide)
peptide: Tridecanoyl-[γGlu][AEEA][AEEA]QRPPLSHKGP[Nle]P[Phe(4-Cl)]-OH
SMILES: CCCCCCCCCCCCC(=O)N[C@@H](CCC(=O)NCCOCCOCC(=O)NCCOCCOCC(=O)N[C@@H](CCC(N)=O)C(=O)N[C@@H](CCCNC(=N)N)C(=O)N1CCC[C@H]1C(=O)N1CCC[C@H]1C(=O)N[C@@H](CC(C)C)C(=O)N[C@@H](CO)C(=O)N[C@@H](Cc1c[nH]cn1)C(=O)N[C@@H](CCCCN)C(=O)NCC(=O)N1CCC[C@H]1C(=O)N[C@@H](CCCC)C(=O)N1CCC[C@H]1C(=O)N[C@@H](Cc1ccc(Cl)cc1)C(=O)O)C(=O)O
In the case of B8, the “EC50 Human APJ Receptor (GTPγS assay)” value with human APJ receptor was determined as 170 pM. In the assay with rat APJ receptor, the “EC50 Rat APJ Receptor (GTPγS assay)” value is 313 pM.

B9: Apelin polypeptide SEQ ID NO: 527 (peptide)
peptide: Tridecanoyl-[γGlu][AEEA][AEEA][dQ]RP[dE][Cha]SHKG[Oic][Nle][Aib][Phe(4-Cl)]-OH
SMILES: CCCCCCCCCCCCC(=O)N[C@@H](CCC(=O)NCCOCCOCC(=O)NCCOCCOCC(=O)N[C@H](CCC(N)=O)C(=O)N[C@@H](CCCNC(=N)N)C(=O)N1CCC[C@H]1C(=O)N[C@H](CCC(=O)O)C(=O)N[C@@H](CC1CCCCC1)C(=O)N[C@@H](CO)C(=O)N[C@@H](Cc1c[nH]cn1)C(=O)N[C@@H](CCCCN)C(=O)NCC(=O)N1[C@H](C(=O)N[C@@H](CCCC)C(=O)NC(C)(C)C(=O)N[C@@H](Cc2ccc(Cl)cc2)C(=O)O)C[C@@H]2CCCC[C@@H]21)C(=O)O
Take B9: in the assay with human APJ receptor, the “EC50 Human APJ Receptor (GTPγS assay)” value was found to be 108000 pM. Also, the “EC50 Rat APJ Receptor (GTPγS assay)” value in the assay with rat APJ receptor is 227000 pM.

B10: Apelin polypeptide SEQ ID NO: 465 (peptide)
peptide: Tridecanoyl-[γGlu][AEEA][AEEA]QRPQLSHKGP[Nle]P[Phe(4-Cl)]-OH
SMILES: CCCCCCCCCCCCC(=O)N[C@@H](CCC(=O)NCCOCCOCC(=O)NCCOCCOCC(=O)N[C@@H](CCC(N)=O)C(=O)N[C@@H](CCCNC(=N)N)C(=O)N1CCC[C@H]1C(=O)N[C@@H](CCC(N)=O)C(=O)N[C@@H](CC(C)C)C(=O)N[C@@H](CO)C(=O)N[C@@H](Cc1c[nH]cn1)C(=O)N[C@@H](CCCCN)C(=O)NCC(=O)N1CCC[C@H]1C(=O)N[C@@H](CCCC)C(=O)N1CCC[C@H]1C(=O)N[C@@H](Cc1ccc(Cl)cc1)C(=O)O)C(=O)O
Consider B10, for which the “EC50 Human APJ Receptor (GTPγS assay)” value in the assay with human APJ receptor turned out to be 69.2 pM. The “EC50 Rat APJ Receptor (GTPγS assay)” value with rat APJ receptor came to 174 pM.

B11: Apelin polypeptide SEQ ID NO: 477 (peptide)
peptide: Tridecanoyl-[γGlu][AEEA][AEEA]QRPELSHKGP[Nle]P[Phe(4-Cl)]-OH
SMILES: CCCCCCCCCCCCC(=O)N[C@@H](CCC(=O)NCCOCCOCC(=O)NCCOCCOCC(=O)N[C@@H](CCC(N)=O)C(=O)N[C@@H](CCCNC(=N)N)C(=O)N1CCC[C@H]1C(=O)N[C@@H](CCC(=O)O)C(=O)N[C@@H](CC(C)C)C(=O)N[C@@H](CO)C(=O)N[C@@H](Cc1c[nH]cn1)C(=O)N[C@@H](CCCCN)C(=O)NCC(=O)N1CCC[C@H]1C(=O)N[C@@H](CCCC)C(=O)N1CCC[C@H]1C(=O)N[C@@H](Cc1ccc(Cl)cc1)C(=O)O)C(=O)O
Take B11: the “EC50 Human APJ Receptor (GTPγS assay)” value with human APJ receptor was 423 pM. The “EC50 Rat APJ Receptor (GTPγS assay)” value in the assay with rat APJ receptor was 691 pM.

B12: Apelin polypeptide SEQ ID NO: 480 (peptide)
peptide: Tridecanoyl-[γGlu][AEEA][AEEA][dR]Q[hArg]P[hArg][Cha]SHKG[Oic][Nle]P[Phe(4-Cl)]-OH
SMILES: CCCCCCCCCCCCC(=O)N[C@@H](CCC(=O)NCCOCCOCC(=O)NCCOCCOCC(=O)N[C@H](CCCNC(=N)N)C(=O)N[C@@H](CCC(N)=O)C(=O)N[C@@H](CCCCNC(=N)N)C(=O)N1CCC[C@H]1C(=O)N[C@@H](CCCCNC(=N)N)C(=O)N[C@@H](CC1CCCCC1)C(=O)N[C@@H](CO)C(=O)N[C@@H](Cc1c[nH]cn1)C(=O)N[C@@H](CCCCN)C(=O)NCC(=O)N1[C@H](C(=O)N[C@@H](CCCC)C(=O)N2CCC[C@H]2C(=O)N[C@@H](Cc2ccc(Cl)cc2)C(=O)O)C[C@@H]2CCCC[C@@H]21)C(=O)O
As for B12, in the assay with human APJ receptor, the “EC50 Human APJ Receptor (GTPγS assay)” value was determined as 99.8 pM. In addition, the “EC50 Rat APJ Receptor (GTPγS assay)” value with rat APJ receptor is 271 pM.
